Measured values taken from the supplement of paper PMC7125110.
± gives the standard error. Fewer inactive variants are shown than the library holds.

B1: glmS ribozyme (parent)
chain: AUAAAAGCGCCAGAACUACAGAAAUGUAGUUGACGAGGAGGAGGUUUAUCGAAUUUUCGGCGGAUGCCUCCAAA

Columns and labels:
Settings in all cases: with glucosamine-6-phosphate
glucosamine-6-phosphate [1] = variants of: B1; test: self-cleavage kobs at 160 uM GlcN6P; higher = faster cleavage; RNA array
In short: (§1)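 On sequenced MiSeq chips, barcoded ribozyme variants were made in situ by E. coli RNA polymerase and followed at 37 °C through a hybridised Cy3 probe. Glucosamine-6-phosphate was flowed in at 40 μM to 10 mM in HEPES/KCl/Mg(OAc)2 buffer. Exponential fits to normalised per-tile medians gave kobs, and weighted Michaelis–Menten fits gave kcat and KM.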

glucosamine-6-phosphate [2] = variants of: B1; test: self-cleavage kobs at 640 uM GlcN6P; higher = faster cleavage; RNA array
In short: as §1

glucosamine-6-phosphate [3] = variants of: B1; test: self-cleavage kobs at 10000 uM GlcN6P; higher = faster cleavage; RNA array
In short: as §1

glucosamine-6-phosphate [4] = variants of: B1; test: self-cleavage kobs at 2500 uM GlcN6P; higher = faster cleavage; RNA array
In short: as §1

glucosamine-6-phosphate [5] = variants of: B1; test: self-cleavage kobs at 40 uM GlcN6P; higher = faster cleavage; RNA array
In short: as §1

Variant | self-cleavage kobs at 160 uM GlcN6P (glucosamine-6-phosphate [1]) | self-cleavage kobs at 640 uM GlcN6P (glucosamine-6-phosphate [2]) | self-cleavage kobs at 10000 uM GlcN6P (glucosamine-6-phosphate [3]) | self-cleavage kobs at 2500 uM GlcN6P (glucosamine-6-phosphate [4]) | self-cleavage kobs at 40 uM GlcN6P (glucosamine-6-phosphate [5])
G7A G41U | < 1e-05 s⁻¹ | < 1e-05 s⁻¹ | < 1e-05 s⁻¹ |  | 
G7A U30C G60U A64C | < 1e-05 s⁻¹ |  |  | < 1e-05 s⁻¹ | 
C8U U56A | < 1e-05 s⁻¹ | < 1e-05 s⁻¹ |  | < 1e-05 s⁻¹ | 
C8A U57A | < 1e-05 s⁻¹ | < 1e-05 s⁻¹ | < 1e-05 s⁻¹ | < 1e-05 s⁻¹ | 
C8A C16U U31C G38A U56C | < 1e-05 s⁻¹ |  | < 1e-05 s⁻¹ |  | 
A6G A33G G60C | < 1e-05 s⁻¹ | < 1e-05 s⁻¹ |  |  | 
G7U G9C G59C U69G | < 1e-05 s⁻¹ | < 1e-05 s⁻¹ |  |  | 
C8G C58A C67A | < 1e-05 s⁻¹ | < 1e-05 s⁻¹ |  | < 1e-05 s⁻¹ | 
A6G U47C C67G | < 1e-05 s⁻¹ | < 1e-05 s⁻¹ |  |  | 
A6G C50G U54C | 5.66e-05 ± 2e-05 s⁻¹ | 5.17e-05 ± 2.4e-05 s⁻¹ |  |  | 
A6G G9U G13C C34A | < 1e-05 s⁻¹ | < 1e-05 s⁻¹ |  | < 1e-05 s⁻¹ | 
G7C A36G A39G C67U | < 1e-05 s⁻¹ | < 1e-05 s⁻¹ |  | < 1e-05 s⁻¹ | 
A6U G41U C68A | < 1e-05 s⁻¹ |  |  | < 1e-05 s⁻¹ | 
C8G U30G G37A G66A U69G | 0.000132 ± 4.9e-05 s⁻¹ | 0.000166 ± 6e-05 s⁻¹ |  |  | 
A6U C11G U30G U31A A42U | < 1e-05 s⁻¹ | < 1e-05 s⁻¹ |  | < 1e-05 s⁻¹ | 
A6G A14U A48G G63U | < 1e-05 s⁻¹ | < 1e-05 s⁻¹ |  | < 1e-05 s⁻¹ | 
C61U C71A | < 1e-05 s⁻¹ | < 1e-05 s⁻¹ |  | < 1e-05 s⁻¹ | < 1e-05 s⁻¹
G7A A15U | < 1e-05 s⁻¹ |  |  |  | 
G9A C10U G13A A52C | < 1e-05 s⁻¹ | < 1e-05 s⁻¹ |  | < 1e-05 s⁻¹ | 
G9A C11A G35A U47C C68A | < 1e-05 s⁻¹ |  |  | < 1e-05 s⁻¹ | 
G7A A48G | < 1e-05 s⁻¹ |  | < 1e-05 s⁻¹ | < 1e-05 s⁻¹ | 
C8G G35U G66A | < 1e-05 s⁻¹ | < 1e-05 s⁻¹ |  |  | 
A6U U30G G44U A53C | < 1e-05 s⁻¹ | < 1e-05 s⁻¹ |  | < 1e-05 s⁻¹ | 
G7A G9U C50U | < 1e-05 s⁻¹ |  |  | < 1e-05 s⁻¹ | 
G9A U65G | < 1e-05 s⁻¹ | < 1e-05 s⁻¹ |  |  | 
